B1: SPOPL (parent)
chain: AKREETKAMESQRAYRFVQGKDWG

Variants of: B1
Experiment: protein stability index of a GFP-peptide fusion (GPS, HEK-293T) (PSI 1-6); higher = more stable
Conditions: c terminus: a fixed tail appended
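Further: lentivirally expressed fusions sorted by FACS into six bins by GFP to DsRed ratio, PSI derived from sequencing read proportions per bin multiplied by bin number.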

Variant | protein stability index
AKREETKAFESQRAYRFVQGKDWG | 2.79
AKREETKAVESQRAYRFVQGKDWG | 3.43
AKREETKAKESQRAYRFVQGKDWG | 3.35
AKREETKANESQRAYRFVQGKDWG | 3.33
AKREETKATESQRAYRFVQGKDWG | 3.66
AKREETKAHESQRAYRFVQGKDWG | 3.25
AKREETKAYESQRAYRFVQGKDWG | 2.83
AKREETKALESQRAYRFVQGKDWG | 3
AKREETKARESQRAYRFVQGKDWG | 3.11
AKREETKAQESQRAYRFVQGKDWG | 3.69
AKREETKASESQRAYRFVQGKDWG | 3.87
AKREETKAAESQRAYRFVQGKDWG | 3.66
AKREETKAIESQRAYRFVQGKDWG | 3.55
AKREETKAWESQRAYRFVQGKDWG | 2.74
AKREETKACESQRAYRFVQGKDWG | 3.58
AKREETKAPESQRAYRFVQGKDWG | 3.27
AKREETKAEESQRAYRFVQGKDWG | 3.85
AKREETKAGESQRAYRFVQGKDWG | 3.45
AKREETKDMESQRAYRFVQGKDWG | 4.01
AKREETKLMESQRAYRFVQGKDWG | 2.38
AKREETKCMESQRAYRFVQGKDWG | 2.75
AKREETKPMESQRAYRFVQGKDWG | 2.9
AKREETKNMESQRAYRFVQGKDWG | 3.03
AKREETKEMESQRAYRFVQGKDWG | 4.1

Variant | protein stability index
AKREETKQMESQRAYRFVQGKDWG | 3.75
AKREETKFMESQRAYRFVQGKDWG | 2.35
AKREETKWMESQRAYRFVQGKDWG | 1.37
AKREETKMMESQRAYRFVQGKDWG | 2.87
AKREETKHMESQRAYRFVQGKDWG | 3.28
AKREETKYMESQRAYRFVQGKDWG | 2.77
AKREETKTMESQRAYRFVQGKDWG | 3.37
AKREETKGMESQRAYRFVQGKDWG | 2.48
AKREETKKMESQRAYRFVQGKDWG | 3.44
AKREETKVMESQRAYRFVQGKDWG | 2.42
AKREETKSMESQRAYRFVQGKDWG | 3.37
AKREETKRMESQRAYRFVQGKDWG | 3.43
AKREETKIMESQRAYRFVQGKDWG | 2.53
AKREETKAMKSQRAYRFVQGKDWG | 2.96
AKREETKAMRSQRAYRFVQGKDWG | 2.39
AKREETKAMDSQRAYRFVQGKDWG | 3.02
AKREETKAMWSQRAYRFVQGKDWG | 2.4
AKREETKAMGSQRAYRFVQGKDWG | 2.69
AKREETKAMMSQRAYRFVQGKDWG | 2.29
AKREETKAMQSQRAYRFVQGKDWG | 2.95
AKREETKAMVSQRAYRFVQGKDWG | 2.75
AKREETKAMNSQRAYRFVQGKDWG | 3.34
AKREETKAMISQRAYRFVQGKDWG | 2.15
AKREETKAMCSQRAYRFVQGKDWG | 2.63

Variant | protein stability index
AKREETKAMLSQRAYRFVQGKDWG | 2.3
AKREETKAMHSQRAYRFVQGKDWG | 2.33
AKREETKAMTSQRAYRFVQGKDWG | 3.06
AKREETKAMPSQRAYRFVQGKDWG | 3.18
AKREETKAMASQRAYRFVQGKDWG | 2.61
AKREETKAMFSQRAYRFVQGKDWG | 2.37
AKREETKAMSSQRAYRFVQGKDWG | 3
AKREETKAMYSQRAYRFVQGKDWG | 1.73
AKREETKAMETQRAYRFVQGKDWG | 2.76
AKREETKAMEQQRAYRFVQGKDWG | 3.58
AKREETKAMEAQRAYRFVQGKDWG | 2.07
AKREETKAMEPQRAYRFVQGKDWG | 2.72
AKREETKAMEEQRAYRFVQGKDWG | 3.77
AKREETKAMENQRAYRFVQGKDWG | 3.47
AKREETKAMEYQRAYRFVQGKDWG | 2.59
AKREETKAMECQRAYRFVQGKDWG | 2.23
AKREETKAMEHQRAYRFVQGKDWG | 2.83
AKREETKAMELQRAYRFVQGKDWG | 2.36
AKREETKAMEVQRAYRFVQGKDWG | 2.53
AKREETKAMEFQRAYRFVQGKDWG | 2.14
AKREETKAMEWQRAYRFVQGKDWG | 1.88
AKREETKAMEKQRAYRFVQGKDWG | 3.15
AKREETKAMEGQRAYRFVQGKDWG | 2.54
AKREETKAMERQRAYRFVQGKDWG | 2.96

Variant | protein stability index
AKREETKAMEDQRAYRFVQGKDWG | 4.06
AKREETKAMEIQRAYRFVQGKDWG | 2.44
AKREETKAMEMQRAYRFVQGKDWG | 2.33
AKREETKAMESIRAYRFVQGKDWG | 1.99
AKREETKAMESLRAYRFVQGKDWG | 1.82
AKREETKAMESNRAYRFVQGKDWG | 3.35
AKREETKAMESGRAYRFVQGKDWG | 2.76
AKREETKAMESFRAYRFVQGKDWG | 2.13
AKREETKAMESARAYRFVQGKDWG | 2.63
AKREETKAMESRRAYRFVQGKDWG | 2.61
AKREETKAMESHRAYRFVQGKDWG | 2.48
AKREETKAMESPRAYRFVQGKDWG | 2.97
AKREETKAMESSRAYRFVQGKDWG | 3.4
AKREETKAMESKRAYRFVQGKDWG | 2.94
AKREETKAMESCRAYRFVQGKDWG | 2.55
AKREETKAMESMRAYRFVQGKDWG | 2.39
AKREETKAMESERAYRFVQGKDWG | 3.65
AKREETKAMESYRAYRFVQGKDWG | 2.69
AKREETKAMESDRAYRFVQGKDWG | 3.85
AKREETKAMESWRAYRFVQGKDWG | 2.4
AKREETKAMESTRAYRFVQGKDWG | 2.78
AKREETKAMESVRAYRFVQGKDWG | 2.06

— the supplement of paper PMC10567573
